Like-named read-outs stand apart in the source and are kept apart here.
Assays:
[1] = molecular target: Spike of live SARS-CoV-2 WT virus (SARS-CoV-2, UniProt P0DTC2 14-1273); test: cell-based or functional assay
[2] = molecular target: T1, SARS-CoV-2 S1+S2 (40589-V08B1, Sino Biological) (SARS-CoV-2, UniProt P0DTC2 16-1213); test: ELISA on coated protein, anti-human IgG-HRP; AUC of the OD
[3] = molecular target: T2, SARS-CoV-2 S1 (40591-V08H3, Sino Biological) (SARS-CoV-2, UniProt P0DTC2 16-685); test: as above
T2 construct: domain: S1

[4] = molecular target: T3, SARS-CoV-2 S2 (40590-V08B, Sino Biological) (SARS-CoV-2, UniProt P0DTC2 686-1213); test: as above
T3 construct: domain: S2

[5] = molecular target: T4, SARS-CoV Spike protein (SARS-CoV, UniProt P59594 14-1195); test: SPR/BLI, method not told apart
[6] = molecular target: T5, MERS-CoV S2 (Sino Biological, 40070-V08) (MERS-CoV, UniProt K9N5Q8 726-1296); test: SPR/BLI, method not told apart
T5 sequence: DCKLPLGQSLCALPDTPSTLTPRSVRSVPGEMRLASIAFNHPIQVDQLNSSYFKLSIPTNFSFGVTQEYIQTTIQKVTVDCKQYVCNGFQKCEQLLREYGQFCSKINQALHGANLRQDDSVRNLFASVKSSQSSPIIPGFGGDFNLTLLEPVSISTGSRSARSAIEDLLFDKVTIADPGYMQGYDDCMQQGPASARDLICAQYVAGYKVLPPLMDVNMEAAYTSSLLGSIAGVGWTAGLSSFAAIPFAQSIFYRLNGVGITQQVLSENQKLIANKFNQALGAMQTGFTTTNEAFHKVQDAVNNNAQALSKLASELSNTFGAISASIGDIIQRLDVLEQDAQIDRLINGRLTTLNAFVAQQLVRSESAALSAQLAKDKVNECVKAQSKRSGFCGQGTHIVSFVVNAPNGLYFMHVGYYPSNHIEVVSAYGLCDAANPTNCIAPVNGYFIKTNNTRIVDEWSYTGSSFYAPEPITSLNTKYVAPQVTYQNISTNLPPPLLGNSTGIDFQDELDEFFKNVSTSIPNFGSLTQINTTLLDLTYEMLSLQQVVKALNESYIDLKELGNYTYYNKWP

[7] = molecular target: T5, MERS-CoV S2 (Sino Biological, 40070-V08); test: BLI, mAb on anti-human Fc biosensor, MERS Spike protein in solution
[8] = molecular target: T1, SARS-CoV-2 S1+S2 (40589-V08B1, Sino …); test: ELISA, hmAb at 10 and 1 ug/ml in duplicate; AUC
[9] = molecular target: T2, SARS-CoV-2 S1 (40591-V08H3, Sino …); test: ELISA, hmAb at 10 and 1 ug/ml in duplicate; AUC
[10] = molecular target: T3, SARS-CoV-2 S2 (40590-V08B, Sino …); test: ELISA, hmAb at 10 and 1 ug/ml in duplicate; AUC
[11] = molecular target: T6, OC43 S2 (40607-V08B1, Sino Biological) (HCoV-OC43, UniProt P36334 759-1297); test: ELISA titration of 1249A8 on coated Spike proteins, mean Abs at 450 nm
T6 construct: domain: S2
T6 sequence: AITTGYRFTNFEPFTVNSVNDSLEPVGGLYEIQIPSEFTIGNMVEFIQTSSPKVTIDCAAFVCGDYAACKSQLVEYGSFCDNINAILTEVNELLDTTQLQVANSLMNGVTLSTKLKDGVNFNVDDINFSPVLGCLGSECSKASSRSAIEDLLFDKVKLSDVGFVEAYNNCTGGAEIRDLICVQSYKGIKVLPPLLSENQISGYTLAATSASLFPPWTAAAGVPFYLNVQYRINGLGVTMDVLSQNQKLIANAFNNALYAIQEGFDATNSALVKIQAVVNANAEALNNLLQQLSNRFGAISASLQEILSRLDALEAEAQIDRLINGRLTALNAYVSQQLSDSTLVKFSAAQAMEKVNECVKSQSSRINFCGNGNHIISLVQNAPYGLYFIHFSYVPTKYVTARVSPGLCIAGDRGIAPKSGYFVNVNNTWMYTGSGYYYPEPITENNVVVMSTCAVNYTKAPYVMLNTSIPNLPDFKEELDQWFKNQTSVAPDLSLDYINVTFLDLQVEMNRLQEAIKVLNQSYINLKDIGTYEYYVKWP

[12] = molecular target: T4, SARS-CoV Spike protein

B1: 1249A8 (antibody, V domains shown)
VH: QVQLVQSGAEVKKPGASMKVSCKASGFTFTDYYMHWVRQAPRQGLEWMGLINPSGSGTAYAQNFQGRVTLARDTSTSTLYMEMGSLTSDDTAVYYCARMDSSGSYDHWGQGTLVTVSS
VL: ETTLTQSPGTLSLSPGDRATLSCRASQTIRISYLAWYQQKPGQAPRLLVYGPSIRATGIPDRFSARGSGTDFTLTISRLEPEDFAVYYCQHYGSSPPRYTFGQGTKLEIK
Neutralization IC50 (µg/ml), Live Virus WT [1]: 1.77 µg/mL
Binding AUC [2]: 24.8
Binding AUC [3]: 1.4
Binding AUC [4]: 28.2
Kd [5]: 3.2 nM
Kd [6]: 0.58 nM
Kd [7]: 0.56 nM
Binding AUC [8]: 24.8
Binding AUC [9]: 1.4
binding result [9]: no binding (tested: 10 ug/ml)
Binding AUC [10]: 28.2
binding result [11]: binds
Kd [12]: 3.15 nM

— patent publication US20240270828A1 (UAB RESEARCH FOUNDATION, published 2024)
